In patent publication US20250011363A1, “OPTIMIZED SHORTENED PEPTIDE THAT BINDS TO ACETYLCHOLINE RECEPTOR, AND USE THEREOF” (SKINMED CO., LTD., priority 2021, published 2025):

The substances below were run against acetylcholine receptor (Homo sapiens, UniProt P02708) (assay: SPR binding affinity (RU) of optimized 5mer/6mer/7mer peptides, Examples 6-7). Conditions: SPR, peptides tested at 10 μM; 5mer Top sequence.
Protocol: Based on the frequencies of occurrence of the top 7 amino acids from Table 7 in Example 5, 600 peptides comprising these amino acids (top combinations) and those comprising the 13 less frequently occurring amino acids (bottom combinations) were synthesized for each series of 5mer, 6mer-1, and 6mer-2. The binding affinity of each sequence for the acetylcholine receptor was measured using Surface Plasmon Resonance (SPR) analysis method. The peptides were tested at a concentration of 10 μM. Additionally, the average binding affinities of the top and bottom combinations in each series are depicted in FIGS. 5-7.
Representative peptides identified in Example 6, two in each library, including 5mers (73, 311) and 6mers-1 (43, 210) and 6mers-2 (136, 233), were compared with the pre-optimized 6mer, 5mer-ND, and Synake.

Sequence of acetylcholine receptor (P02708 21-457): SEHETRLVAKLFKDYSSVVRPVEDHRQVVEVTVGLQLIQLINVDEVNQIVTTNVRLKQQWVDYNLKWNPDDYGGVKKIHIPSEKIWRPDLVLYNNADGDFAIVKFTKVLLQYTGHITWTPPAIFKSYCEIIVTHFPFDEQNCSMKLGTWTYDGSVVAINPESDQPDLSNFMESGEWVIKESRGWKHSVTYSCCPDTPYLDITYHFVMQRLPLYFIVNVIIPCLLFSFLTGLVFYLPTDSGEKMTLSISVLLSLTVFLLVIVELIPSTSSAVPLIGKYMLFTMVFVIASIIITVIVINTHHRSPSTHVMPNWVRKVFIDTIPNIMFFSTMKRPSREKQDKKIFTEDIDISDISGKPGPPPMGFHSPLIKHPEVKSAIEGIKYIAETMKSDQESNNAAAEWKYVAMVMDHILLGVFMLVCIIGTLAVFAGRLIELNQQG

Substance | Binding affinity
5mer-75 (KVQTK) | 63 Ru
5mer-76 (RGYRR) | 80 Ru
5mer-77 (KWRQK) | 74 Ru
5mer-78 (KVICK) | 79 Ru
5mer-79 (RWFLR) | 82 Ru
5mer-80 (KSRTR) | 83 Ru
5mer-81 (RGIYR) | 79 Ru
5mer-82 (RQRYK) | 84 Ru
5mer-83 (KGFSR) | 64 Ru
5mer-84 (RVVRR) | 67 Ru
5mer-85 (KGVLK) | 74 Ru
5mer-86 (RRLCK) | 55 Ru
5mer-87 (RQITR) | 55 Ru
5mer-88 (RRVQK) | 73 Ru
5mer-89 (KRITK) | 77 Ru
5mer-90 (RWYTK) | 86 Ru
5mer-91 (RQIQK) | 55 Ru
5mer-92 (RVRLK) | 62 Ru
5mer-93 (KWVYR) | 79 Ru
5mer-94 (RWFQR) | 50 Ru
5mer-95 (RGRRK) | 68 Ru
5mer-96 (RVLYR) | 55 Ru
5mer-97 (KRQLR) | 52 Ru
5mer-98 (KWYCK) | 68 Ru
5mer-99 (RWICK) | 58 Ru
5mer-100 (KVIRK) | 80 Ru

Substance | Binding affinity
5mer-101 (RQQYR) | 55 Ru
5mer-102 (RGFSK) | 82 Ru
5mer-103 (RWFLK) | 62 Ru
5mer-104 (RVVLK) | 74 Ru
5mer-105 (RGQQR) | 50 Ru
5mer-106 (KLLQR) | 78 Ru
5mer-107 (RWVSR) | 56 Ru
5mer-108 (KWQLK) | 77 Ru
5mer-109 (RLQCR) | 68 Ru
5mer-110 (KRRLK) | 76 Ru
5mer-111 (KSVLK) | 85 Ru
5mer-112 (KRYYR) | 58 Ru
5mer-113 (KRLRK) | 79 Ru
5mer-114 (KRQRR) | 82 Ru
5mer-115 (RWLLR) | 75 Ru
5mer-116 (RWRSK) | 64 Ru
5mer-117 (RSVYK) | 69 Ru
5mer-118 (RVICK) | 87 Ru
5mer-119 (KQIRK) | 60 Ru
5mer-120 (RQILK) | 68 Ru
5mer-121 (RQVTR) | 73 Ru
5mer-122 (RSYQK) | 78 Ru
5mer-123 (KWIRR) | 53 Ru
5mer-124 (KGFSK) | 58 Ru
5mer-125 (RVRQK) | 67 Ru
5mer-126 (RGVTK) | 61 Ru

Substance | Binding affinity
5mer-127 (RWVTK) | 86 Ru
5mer-128 (RGVCR) | 56 Ru
5mer-129 (KSLLK) | 63 Ru
5mer-130 (RRFRK) | 80 Ru
5mer-131 (KLRRR) | 72 Ru
5mer-132 (RVRCK) | 83 Ru
5mer-133 (KGQRK) | 84 Ru
5mer-134 (RQFSK) | 61 Ru
5mer-135 (RRLLR) | 64 Ru
5mer-136 (RRIYK) | 75 Ru
5mer-137 (KGVSK) | 77 Ru
5mer-138 (RQRCR) | 71 Ru
5mer-139 (RLQYK) | 73 Ru
5mer-140 (KWRLR) | 69 Ru
5mer-141 (RWQQR) | 50 Ru
5mer-142 (RQYSR) | 52 Ru
5mer-143 (KGQQR) | 64 Ru
5mer-144 (KRFSK) | 58 Ru
5mer-145 (RSFSK) | 62 Ru
5mer-146 (RWFTK) | 52 Ru
5mer-147 (RRYQK) | 66 Ru
5mer-148 (RSQTK) | 50 Ru
5mer-149 (KQFLR) | 80 Ru
5mer-150 (RVRTR) | 64 Ru
5mer-151 (RVFTK) | 66 Ru
5mer-152 (RRRRR) | 56 Ru

Substance | Binding affinity
5mer-153 (RSIQK) | 72 Ru
5mer-154 (RSITR) | 54 Ru
5mer-155 (KRYLR) | 57 Ru
5mer-156 (KGLRK) | 85 Ru
5mer-157 (KGRCR) | 78 Ru
5mer-158 (RWQTK) | 65 Ru
5mer-159 (RGQRR) | 73 Ru
5mer-160 (RSIRR) | 53 Ru
5mer-161 (KWVTK) | 52 Ru
5mer-162 (RGYQR) | 51 Ru
5mer-163 (KSLCK) | 61 Ru
5mer-164 (KSICK) | 54 Ru
5mer-165 (KWRSK) | 56 Ru
5mer-166 (KSFQR) | 55 Ru
5mer-167 (KQFRK) | 64 Ru
5mer-168 (KLFSK) | 84 Ru
5mer-169 (RWYRK) | 61 Ru
5mer-170 (RLICK) | 62 Ru
5mer-171 (KSIQR) | 55 Ru
5mer-172 (RSRRR) | 82 Ru
5mer-173 (RSVSR) | 59 Ru
5mer-174 (KGRQR) | 59 Ru
5mer-175 (RWQLK) | 63 Ru
5mer-176 (RVLYK) | 52 Ru
5mer-177 (RWVRK) | 77 Ru
5mer-178 (RRVLK) | 87 Ru

Substance | Binding affinity
5mer-179 (RLYTK) | 55 Ru
5mer-180 (KQRYR) | 74 Ru
5mer-181 (RSLLK) | 72 Ru
5mer-182 (RVLSK) | 70 Ru
5mer-183 (KRVYR) | 64 Ru
5mer-184 (KLQCR) | 68 Ru
5mer-185 (RRYRR) | 86 Ru
5mer-186 (KRLQR) | 64 Ru
5mer-187 (RWVCR) | 74 Ru
5mer-188 (KWFSK) | 82 Ru
5mer-189 (RLLQK) | 65 Ru
5mer-190 (RWRSR) | 84 Ru
5mer-191 (RVRCR) | 75 Ru
5mer-192 (KSFRK) | 75 Ru
5mer-193 (RVIRK) | 80 Ru
5mer-194 (KWQSK) | 84 Ru
5mer-195 (KVVSR) | 82 Ru
5mer-196 (RSYYR) | 69 Ru
5mer-197 (RSRQK) | 68 Ru
5mer-198 (KLISR) | 74 Ru
5mer-199 (KRYQR) | 84 Ru
5mer-200 (KRVRR) | 55 Ru
5mer-201 (RWIYR) | 62 Ru
5mer-202 (KWYRR) | 65 Ru
5mer-203 (RQLTR) | 78 Ru
